How the values were obtained:
[1] = tested on: FKBP-LAP1 and FRB-LplAW37V; conditions: FRB fusions, ID-PRIME labeling of FKBP-LAP1
Experimental: Growth media was then removed and the cells were labeled by applying 20 μM coumarin-AM2 in serum-free DMEM at 37° C. for 10 minutes. Excess coumarin was washed out with three changes of fresh DMEM over 60 minutes at 37° C. Cells were imaged in DPBS. Confocal images were acquired at 60× magnification.

[2] = tested on: LAP peptide (sequence=GFEIDKVWYDLDA); conditions: 1 μM ligase, 200 μM LAP peptide, 500 μM resorufin-AM2, 30° C., 1 hour
Experimental: These DNA fragments were cloned into expression vectors and expressed in E. coli cells. The ligase activity of the LplA mutants thus prepared in catalyzing formation of resorufin-LAP conjugate was tested as described below. 1 μM Lipoic acid ligase, 200 μM, LAP peptide (sequence=[…]), ligase, 500 μM resorufin-AM2, 2 mM ATP, and 5 mM magnesium acetate were mixed in an Eppendorf tube and incubated at 30° C. for 1 hour. Components in the mixture were analyzed by C18 HPLC and tandem ESI-MS, using 15%→40% acetonitrile linear gradient over 8 minutes containing 0.1% formic acid to resolve resorufin, LAP, and resorufin-LAP conjugate. A mixtures omitting ATP or the lipoic acid ligase was used as a negative control.

[3] = target: T1, LAP2 (Escherichia coli, UniProt P32099, W38V); conditions: coumarin ligation
[4] = tested on: LAP-YFP fusion protein; assay: Orthogonal resorufin and 7-hydroxycoumarin labeling in living HEK 293T cells; conditions: 5 μM resorufin-AM2 and 20 μM 7-hydrozycoumarin-AM2, 10 minutes
Experimental: After being rinsed with DPBS or HBSS, the transfected cells were incubated with 5 μM resorufin-AM2 and 20 μM 7-hydrozycoumarin-AM2 at 37° C. for 10 minutes.
The cells were washed with the culture medium, cultured at 37° C. for 30 minutes, and observed under a fluorescent microscope.

[5] = target: T1, LAP2; conditions: cited from earlier work
[6] = target: FKBP-LAP1 (Escherichia coli, UniProt P32099, W38V)

B1: W37V: E. coli LplA single mutant W37V, coumarin ligase (protein)
chain: STLRLLISDSYDPWFNLAVEECIFRQMPATQRVLFLVRNADTVVIGRAQNPWKECNTRRMEEDNVRLARRSSGGGAVFHDLGNTCFTFMAGKPEYDKTISTSIVLNALNALGVSAEASGRNDLVVKTVEGDRKVSGSAYRETKDRGFHHGTLLLNADLSRLANYLNPDKKKLAAKGITSVRSRVTNLTELLPGITHEQVCEAITEAFFAHYGERVEAEIISPNKTPDLPNFAETFARQSSWEWNFGQAPAFSHLLDERFTWGGVELHFDVEKGHITRAQVFTDSLNPAPLEALAGRLQGCLYRADMLQQECEALLVDFPEQEKELRELSAWMAGAVR
modifications: E. coli
background versus expression level [1]: increased with expression level
Yield of resorufin-LAP conjugate [2]: <5%
Kcat for coumarin [3]: 0.019 s⁻¹
substrate specificity in cells [4]: only catalyzes conjugate of 7-hydroxycoumarin
reported kcat for coumarin ligation to LAP2 [5]: 1.14 min⁻¹
catalytic rate slower than lipoic acid ligation [6]: 22 times
kcat for coumarin ligation to LAP1 ([6]; purified FKBP-LAP1): 0.60 ± 0.06 min⁻¹
Km ([6]; read-out: Km of the enzyme for LAP1, coumarin probe, purified FKBP-LAP1): 681 ± 168 µM

Reference: patent publication US9284541B2, “Methods and compositions for protein labeling using lipoic acid ligases” (Massachusetts Institute of Technology, priority 2007, dated 2016)
